1 molecule from patent US20160136236A1 (MODERNA THERAPEUTICS, published 2016) can be followed below.

The assay has as its target T1, BODIPY-labeled LDL (low density lipoprotein) (UniProt P04114 28-4563, BODIPY fluorescent label, site not stated).
T1 construct: A lipoprotein particle (protein and lipid), not a pure protein; also called BODIPY-LDL; LDL-BODIPY
In words: FACS; increasing amounts of BODIPY-LDL for 1 h at 37 C on HEK293 cells transfected with LDLR mRNA.

B1: wild type (WT) human low density lipoprotein receptor (LDLR) (receptor)
chain: not shown
notes: also called LDL receptor; wild-type LDLR
In general, Kd refers to a measure of binding affinity in units of concentration. B1 registered a Kd of about 0.06 µg/mL.
